Patent publication US20200164029A1 (ACCELERON PHARMA, published 2020)

Assays:
VEGF = biological target: T1, VEGF (human, UniProt P15692-4 27-191, limits assumed); test: SPR
T1 construct: also called vascular endothelial growth factor

human TGF-β1 = biological target: T2, human TGF-β1 (human, UniProt P01137 279-390); test: refers back to Example 3 (SPR)
T2 construct: also called hTGF-β1

human TGF-β2 = biological target: T3, human TGF-β2 (human, UniProt P61812 303-414); test: refers back to Example 3 (SPR)
T3 construct: also called hTGF-β2
T3 sequence (looked up): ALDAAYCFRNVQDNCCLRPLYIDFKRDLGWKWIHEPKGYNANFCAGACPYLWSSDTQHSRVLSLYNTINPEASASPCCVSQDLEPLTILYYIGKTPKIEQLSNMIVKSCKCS

human TGF-β3 = biological target: T4, human TGF-β3 (human, UniProt P10600 301-412); test: refers back to Example 3 (SPR)
T4 construct: also called hTGF-β3
T4 sequence (looked up): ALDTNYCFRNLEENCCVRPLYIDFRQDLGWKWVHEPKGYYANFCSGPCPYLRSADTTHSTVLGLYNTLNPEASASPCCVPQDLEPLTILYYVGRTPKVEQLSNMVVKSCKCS

T2 sequence (P01137 279-390 limits assumed): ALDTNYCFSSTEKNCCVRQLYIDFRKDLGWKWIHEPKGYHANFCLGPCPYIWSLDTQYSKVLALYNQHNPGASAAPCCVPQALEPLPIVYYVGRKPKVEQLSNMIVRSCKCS
T1 sequence (P15692 other isoform, or with tags, fused parts or gaps limits assumed): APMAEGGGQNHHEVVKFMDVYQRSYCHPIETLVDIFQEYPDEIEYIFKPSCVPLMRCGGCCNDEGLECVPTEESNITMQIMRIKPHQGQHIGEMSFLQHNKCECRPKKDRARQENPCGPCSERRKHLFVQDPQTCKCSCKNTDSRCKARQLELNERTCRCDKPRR

- binding result (VEGF): no binding
- binding result (human TGF-β1): no binding
- binding result (human TGF-β2): no binding
- binding result (human TGF-β3): no binding
B1: mENG(27-581)-mFc (Fc fusion)
chain: GGERVGCDLQPVDPTRGEVTFTTSQVSEGCVAQAANAVREVHVLFLDFPGMLSHLELTLQASKQNGTETQEVFLVLVSNKNVFVKFQAPEIPLHLAYDSSLVIFQGQPRVNITVLPSLTSRKQILDWAATKGAITSIAALDDPQSIVLQLGQDPKAPFLCLPEAHKDMGATLEWQPRAQTPVQSCRLEGVSGHKEAYILRILPGSEAGPRTVTVMMELSCTSGDAILILHGPPYVSWFIDINHSMQILTTGEYSVKIFPGSKVKGVELPDTPQGLIAEARKLNASIVTSFVELPLVSNVSLRASSCGGVFQTTPAPVVTTPPKDTCSPVLLMSLIQPKCGNQVMTLALNKKHVQTLQCTITGLTFWDSSCQAEDTDDHLVLSSAYSSCGMKVTAHVVSNEVIISFPSGSPPLRKKVQCIDMDSLSFQLGLYLSPHFLQASNTIELGQQAFVQVSVSPLTSEVTVQLDSCHLDLGPEGDMVELIQSRTAKGSCVTLLSPSPEGDPRFSFLLRVYMVPTPTAGTLSCNLALRPSTLSQEVYKTVSMRLNIVSPDLSGKGTGGGEPRVPITQNPCPPLKECPPCAAPDLLGGPSVFIFPPKIKDVLMISLSPMVTCVVVDVSEDDPDVQISWFVNNVEVHTAQTQTHREDYNSTLRVVSALPIQHQDWMSGKEFKCKVNNRALPSPIEKTISKPRGPVRAPQVYVLPPPAEEMTKKEFSLTCMITGFLPAEIAVDWTSNGRTEQNYKNTATVLDSDGSYFMYSKLRVQKSTWERGSLFACSVVHEGLHNHLTTKTISRSLGK
notes: also called mu-Endoglin; soluble murine ENG fusion protein
